Assay results from patent publication US20160024200A1 (published 2016).

Legend:
[1] = biological target: T1, human granulocyte macrophage colony-stimulating factor (GM-CSF) (human, UniProt P04141 18-144); test: cell-based or functional assay
[2] = biological target: T1, human granulocyte macrophage …; test: cell-based or functional assay; remark: listed apart in the source
[3] = biological target: T1, human granulocyte macrophage …; test: cell-based or functional assay; remark: listed apart in the source
[4] = biological target: T1, human granulocyte macrophage …; test: SPR, Biacore 3000, mAb captured on anti-human IgG, GM-CSF as analyte, 25 C
Procedure: The SPR experiments were performed at 25° C. on a Biacore 3000 (GE Healthcare, Piscataway, N.J.) using a CM5 sensor chip and HBS-P (10 mM HEPES, pH 7.4, 150 mM NaCl, 0.01% P-20) or HBS-EP (10 mM HEPES, pH 7.4, 150 mM NaCl, 3 mM EDTA, 0.01% P-20). Anti-human IgG (Fc) (GE Healthcare) or anti-human IgG (Southern Biotech, cat. #2040-01) was immobilized similarly on the experimental and reference flow cells using standard amine coupling. […] GM-CSF made in-house or purchased (Genscript, Cat. #Z00349), was injected over the mAb-coated cell and reference cell at the following concentrations: 100, 50, 25, 12.5, 6.25, 3.12, 1.5 and 0.8 nM. The flow rate was 30 μL/min and triplicate blank injections and replicate injections of the 12.5 nM GM-CSF were included to account for any drift and to ensure assay reproducibility. […] To regenerate the capture surface, two 30 sec pulses of a 2:1 mixture of glycine (pH 2) to 3 M MgCI was utilized. All data were double reference subtracted in that they were subtracted both from the reference cell and from a blank injection. Data were fit to a 1:1 model with (for those with very fast on-rates) or without a mass transport term using the Biacore 3000 evaluation software.

T1 sequence (P04141 18-144 limits assumed): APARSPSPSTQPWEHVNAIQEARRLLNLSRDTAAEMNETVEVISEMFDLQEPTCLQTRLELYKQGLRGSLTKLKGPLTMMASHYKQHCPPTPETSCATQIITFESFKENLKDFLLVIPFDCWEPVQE

- IC50 (ng/mL), TF-1 assay [1]: 0.8 ng/mL
- IC50 (read off the curve); CD11b on human neutrophils in whole blood with 10 ng/mL GM-CSF (FACS), % inhibition [2]: ~50 ng/mL
- IC50, TF-1 assay [3]: < 1 ng/mL
- IC50, TF-1 assay (200 pg/mL GM-CSF) [3]: 0.7 to 0.8 ng/mL
- Kd [4]: 0.12 nM
- koff [4]: 0.0001 s⁻¹
- kon [4]: 830000 M⁻¹ s⁻¹
B1: F1 human monoclonal antibody against GM-CSF (antibody, V domains shown)
VH: QVQLQESGPGVVKPSETLSLTCSVSDSAIRKYYWSWIRQPPGQGLEYIGYIYASGSSFYNPSFKSRVSMSVDATNNQFYLKLTSVTAADTAVYYCAAITGTTDLWGRGTLVTVSS
VL: DIQMTQSPSSVSASVGDRVTITCRASQGINRRLAWYQQKPGKAPKRLIYAVSTLQSGVPSRFNGSGSGTDFTLTVNNVQPDDLAMYFCLQSNNYPLTFGGGTKVEIK
notes: also called F1 antibody; purified F1
